Laboratory results reported in the RNAGym collection of RNA variant scans (doi:10.1073/pnas.2313332121).

B1: TPR t1 (parent)
chain: GACCAAUCUGCCCUCAGAGCUCGAGAACAUCUUCGGAUGCAGAGGAGGCAGGCUUCGGUGGCGCGAUAGCGCCAACGUCCUCAACCUCCAAUGCAUCCCACCACAUGAUGAUGCCUGAAGAGCCUUGGUUUUUUG

Variants of: B1
Experiment: polymerase ribozyme fitness, log enrichment relative to wild type (log ratio); higher = more active; in vitro selection for triplet polymerase activity
Method in brief: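 Each subunit of a heterodimeric triplet polymerase ribozyme was represented by a PCR-built, transcribed mutant library that underwent triplicate single-round in vitro selection with frozen incubation at −7 °C. Extended constructs were recovered by gel excision, streptavidin-bead capture and RT-PCR, and Illumina sequencing of input and output libraries kept genotypes with ≥10 input reads and ≥1 read per output. Fitness is the logarithm of genotype enrichment relative to wild-type enrichment, from inverse-variance-weighted replicate averages, with a logarithm base of 2.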

Point of comparison: C4U G69U C72G C124G, “polymerase ribozyme fitness (log ratio)” value 0.464. Against it:
- G47U C53A A103C U112A G122A — lower, -6.51
- G10C A75U C98A U109A G127C — lower, -5.13
- U92C G113A — lower, -1.23
- C11G G57A G93A U96A — lower, -2.56
- G61C A91U — lower, -4.64
- A5C G10C A43C C124G — lower, -1.41
- C49U U131A — lower, -0.481
- C12U C40U C104A — lower, -2.12
- C4G A50U — lower, -3.4
- C8U G128A — lower, -1.25
- G63C U78C — lower, -1.55
- G19A A46C U125A — lower, -3.96
- A18G C20U A95C — lower, -1.56
- C11G G39A G120C G127C — higher, 0.971
- U9G A37U C40U G45A C104U — lower, -0.895
- U14A G63C A83U C86A U112A U131A — lower, -2.09
- G69U C99A G127C — lower, -3.98
- C11A G61A C80U C98U A100U — lower, -4.96
- C8G G35C A90G — lower, -2.66
- C101G G110A — lower, -4.15
- A43C G60U U78C C104A G120C — lower, -5.55
- C13U C22G A41U C72U U78G U81C G122A — lower, -4.05
- G45A A121G — higher, 1.78
- U109A C114U A121C — lower, -4.32
- A50G G60C C94U U129G — lower, -3.05
- C49U C123U — higher, 1.01
- C15A G69C C94U U126A — lower, -5.2
- G48U G71U U81A C124U — lower, -0.483
- C72G A111U — lower, -3.82
- C20A C28A G45U A84U C104A G107U C124U — lower, -5.96
- A29G C34A — lower, -4.34
- G39U G58A — higher, 0.844
- A41C C89A G93U C101U G113U — lower, -6.26
- U21A G42U G60C — lower, -2.45
- G57A C73U G110A — lower, -2.06
- C73A U116A C124A — higher, 0.809
- C28U G45A G63C — lower, -3.75
- C31U A37G — lower, -3.78
- C13U C20A U21G A24C G71C U112C C123A — lower, -6.62
- U9A C11U C76U A84C — lower, -0.377
- C34A U59A C70U — lower, -5.58
- C13U C70G G122A — lower, -2.19
- C53G A90C G117U — lower, -3.56
- U7A G36C A37G C97U G113C — lower, -3.07
- C11A C15U C28G C123G G128U — lower, -5.63
- G25A C49U — lower, -6.96
- C70U U125G G127A — lower, -1.83
- C56G A90U U92G C97U — lower, -2.65
- A6C C72U A105C U131C — lower, -2.59
- C22G C114A — lower, -3.01
- C40U C115U U125G U133C — lower, -0.584
- A18C A74U — lower, -4.85
- C34U A37G C64U U78C G113U U125G — lower, -5.79
- G69C C99U G120U — lower, -5.41
- A6G C72U U112G — higher, 0.809
- U78C A95C — lower, -1.06
- C11U G44C C101A — lower, -2.7
- U54C U133A — lower, -0.0319
- G10A A37U G117U U133A — lower, -4.32
- U7C C8U A46U C56G G128U — lower, -3.61
- A43G G61U C114A G127C U132A — lower, -3.36
- G71A A84G C102A C115G — lower, -6.59
- C49A G71C C98U — lower, -2.91
- A29U G127C — lower, -3.29
- C8G A46G A66C A90U — lower, -4.16
- G63C U87A A100U G127C — lower, -2.77
- G42U C56G — lower, -1.08
- C13A U14A U54A — lower, -2.73
- C8U G61A A95U G120A — higher, 1.6
- C12A C56U — lower, 0.0114
- G23U — lower, -6.05
- U32C C49U — lower, -0.805
- C89G U126G — lower, -3.19
- C8U A18C A41U A50G C101U — lower, -2.01
- G23C G110C — lower, -7.42
- C15A C114A — lower, -4.98
- G69U C98U U129C — lower, -1.15
- G52A C73G C85A — lower, -1.93
- C20G U32G A90U G93U U109C — lower, -4.13
- C11A A37G U59A U131C — lower, -1.86
- U9C G69U — higher, 1.23
- A2U G61U — lower, -1.84
- G63U U81G A121C — lower, -3.58
- U7A G35A G71A G77C C124A — lower, -5.19
- G47C G110U — lower, -2.81
- G48U G57C — lower, -0.412
- C8A G77A — within 0.2 log units, 0.514
- G63A C88A — lower, -1.42
- C11U G93C U112A G127C U134A — lower, -0.699
- A6C G61A U92A — lower, -3.09
- C28G C73G C104A A111C — lower, -4.53
- C72U G93C — lower, -0.856
- G61U G113A C115U — lower, -3.08
- G48U C86A — lower, -0.67
- A16U G52A — lower, -2.03
- U21G G39A — lower, -1.39
- U38G C49U — lower, -2.12
- U55A G69U — within 0.2 log units, 0.503
- A68G U87C A111C G135U — lower, -6.03
- A16U C64U — lower, -1.71
- G77U C88U C115U U131A — lower, -1.33
- U7C C8G G17U C40A C89G A91C U126G — lower, -4.01
- C11U G48C — lower, -1.61
- C49A C88U C94U C123U U132G G135U — lower, -1.38
- A2C C123U G128C — lower, -0.305
- C8A G36A C79U U96G C102U — lower, -2.91
- U106G C123G C124G — higher, 1.38
- G36U G61A G93C G120C — lower, -0.0777
- C12U U38C G42U G61A U96A G122U — lower, -4.37
- U14C C49G A84C U106G U133G — lower, -5.32
- C85G C88A C101U C124U — lower, -0.871
- C15U C20G G51A C98G U109A — lower, -2.04
- U14A G120C — lower, 0.0767
- G36U C64U — lower, -1.21
- C3A G39A U54C C70U C104U — lower, -2.33
- C56U G122U — lower, -0.129
- C53A G60A A105C — lower, -2.91
- A6U G77U U78C C86U G107C U112G — lower, -5.66
- G10A C13A U112A — within 0.2 log units, 0.644
- G48C U55G C79U A84C C85G G93U C124A — within 0.2 log units, 0.322
- U112C G128U — lower, -0.242
- C20U U78A C85U — lower, -2.54
- A6U G52A — lower, -2.05
- G10A C11G C12U U96C C104U C123G U131G — higher, 2.08
- G17A C79G C124G U125A — lower, -4.5
- U7G G10C C72G C82A — lower, -0.707
- U92A A121G — lower, -0.696
- C15A C62G U92C A121U — lower, -4.25
- C56A G61A — lower, -1.51
- A27G A74C C115G — lower, -6.8
- C13G G36C C56A U78A A90G G135U — lower, -4.08
- G63U G120U — lower, -0.921
- G61U C62A U112A G128A U133A — lower, -5.42
- A5U G63U — lower, -1.8
- A50U G63A — lower, -1.47
- C3U G47A C49G G69A — lower, -4.22
- C8G C115U — lower, -0.75
- U7A C31U A111G — lower, -4.76
- C62A A119C C123U — lower, -2.98
- C56U C62U C123A — lower, 0.0354
- C62U U78C C85A U92C C97A — lower, -6.24
- C20A A46G C49A G60U U81G A91C — lower, -5.46
- G51A C62A G117U U134G — lower, -5.73
- U7C C11A C98A — lower, -6.8
- C85G U112A C115U — lower, -2.5
- C86U C98U G117C — lower, -5.99
- G19A G58C C94G G120C — lower, -3.72
- G10U C22U G47A U96A C123A — lower, -5.89
- G45A C56U A90U — lower, -1.57
- G47U C72G — lower, -2.79
- C20A C28U A46C G113U C115A — lower, -4.17
- C62A C72G G120U U129G — lower, -3.88
- C70G A84U C85U C104U — lower, -4.81
- U54C U109G — lower, -5.15
- C31U G61A — lower, -3.81
- C12U G61U C62U G113A — lower, -4.94
- C104A U130A — lower, -2.46
- C72U G113C — lower, -2.1
- A26G A41G G60C G93A — lower, -2.97
- C49G A50C C89U A91C — lower, -2.86
- A16G G36U G69C A121U — lower, -1.25
- G10U U32G C102U C124U U126G — lower, -7.39
- A29C C40U A41U G58C G71U C104U U129A — lower, -6.05
- A111U G113A U130G — lower, -5.85
- C8U G39U — within 0.2 log units, 0.386
- G93A U112C — higher, 0.676
